Measured values: US20240228559A1, “REDOX SENSITIVE CRALBP MUTANT PROTEINS” (UNIVERSITÄT BERN, priority 2021, published 2024)

What was measured:
CRALBP = target: T1, CRALBP (Bos taurus, UniProt P10123); conditions: CRALBP isolated from bovine retina; cited from earlier work
T1 construct: CRALBP was isolated from bovine retina; from tissue; host or cells: bovine retina

[1] = Photoisomerization assay of cis-retinal complexes under daylight bulb, UV/Vis; format: physicochemical; conditions: for k, reaction velocity of photoisomerization: oxidized overnight at 4° C. with 5 mM oxidized glutathione, reduced with DTT
Procedure: Photoisomerization assays of cis-retinal and its complexes with wild-type CRALBP or with di-cysteine mutant A212C:T250C of CRALBP were performed essentially as described by Saari et al. (Saari J C and Bredberg D L, ([…]), J Biol Chem. 262(16):7618-22). For this, the gel permeation chromatography purified ligand complexes were diluted to 26 μM in (GFC) buffer (10 mM Hepes, 100 mM NaCl, pH 7.5) and equimolar amounts of BSA were added to avoid protein precipitation through the light induced formation of free all-trans-retinal. […] Simultaneously UV/Vis absorption spectra were collected every 180 seconds for 3600 sec in total using the Evolution array UV/Vis spectrophotometer (Thermo Scientific). For photoisomerization experiments of the oxidized mutant A212C: T250C or the wild-type CRALBP, 5 mM oxidized glutathione was added to the preformed complexes and the mixtures were kept overnight at 4° C. For repeated reduction, the oxidized glutathion was first removed from the samples using a Vivaspin 15R Hydrosart (Sartorius) by three times concentrating the samples to a tenth of the volume and subsequent redilution in buffer (10 mM Hepes, 100 mM NaCl, pH 7.5) to the original volume. The washed samples were then reduced by adding 5 mM DTT and kept at 4° C. for 1 hour. […] Thus, the introduction of the A212C:T250C double mutation represents an engineered redox-sensitive on-off switch into human CRALBP allowing for a reversible turning on and off of CRALBP's mobile gate functionality. The two mutations are located at adjacent positions in the mobile gate's interface of CRALBP allowing for the formation of an intramolecular disulfide bond under oxidizing conditions and to regain the gate's native functionality under reducing conditions.

[2] = both in complex with 11-cis-retinal; estimated from first order rate constants and extinction coefficients; cited from earlier work
[3] = Dynamic light scattering of GFC complex fractions; format: physicochemical; conditions: DLS, 25° C., H2O; ± SD
Procedure: The same fractions derived from the preparative GFC that were characterized by analytical GFC, were also analyzed by dynamic light scattering (DLS) on a Malvern Zetasizer S®. Each DLS experiment contains was performed following the settings compiled in Table 5, the run duration and number of runs per measurement was set according to the auto-optimization of the Malvern Zetasizer software.

T1 sequence (P10123 whole entry): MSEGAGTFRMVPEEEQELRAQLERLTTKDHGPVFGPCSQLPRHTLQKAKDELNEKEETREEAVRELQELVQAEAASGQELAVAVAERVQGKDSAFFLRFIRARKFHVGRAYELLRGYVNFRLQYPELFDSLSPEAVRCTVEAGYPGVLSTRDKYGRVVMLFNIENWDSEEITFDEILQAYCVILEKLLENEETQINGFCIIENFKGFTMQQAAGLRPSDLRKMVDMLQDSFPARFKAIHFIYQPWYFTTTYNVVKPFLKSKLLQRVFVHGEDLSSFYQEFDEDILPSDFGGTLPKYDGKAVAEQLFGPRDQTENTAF

## CC1=C(/C=C/C(C)=C\C=C\C(C)=C\C=O)C(C)(C)CCC1 [9-cis-retinal]
CRALBP
  Kd: 53 nM

## CC1=C(/C=C/C(C)=C/C=C/C(C)=C/C=O)C(C)(C)CCC1 [11-cis-retinal]
CRALBP
  Kd: 20 nM

## CC1=C(/C=C/C(C)=C/C=C\C(C)=C\CO)C(C)(C)CCC1 [11-cis-retinol]
CRALBP
  Kd: 60 nM

## CC1=C(/C=C/C(C)=C/C=C/C(C)=C/C=O)C(C)(C)CCC1 [13-cis]
CRALBP
  binding to CRALBP: does not bind

## A212C:T250C: human CRALBP mutein with alanine 212 and threonine 250 replaced by cysteines, SEQ ID NO:9
[1]; FIG. 8, complex with cis-retinal, 1000 lux
  increase of photostability (half-life t1/2), oxidized versus reduced redox state: 20 fold
[1]; oxidized state, FIG. 9, 380 lux, room temperature
  slowing down of the rate of photoisomerization: at least 10 fold
[1]; repeat reduction of the oxidized sample in 5 mM DTT
  behaviour in photoisomerization assay after repeat reduction: re-established wild-type like behavior

## CRALBP: CRALBP isolated from bovine retina, in complex with 11-cis-retinal
[2]
  expected photoisomerization in CRALBP compared to rhodopsin: 4%

## HMW: high molecular weight oligomeric complex fraction of A212C:T250C CRALBP with 9-cis-retinal
[3]
  average size distribution in diameter: 13.50±0.47 nm

## SHMW: super high molecular weight oligomeric complex fraction of A212C:T250C CRALBP with 9-cis-retinal
[3]
  average size distribution in diameter: 28.28±2.13 nm

## dimeric complex: dimeric GFC fraction of A212C:T250C CRALBP loaded with 9-cis-retinal
[3]
  average size distribution in diameter: 8.72±2.41 nm

## monomeric complex of di-cysteine A212C:T250C CRALBP with 9-cis-retinal: monomeric GFC fraction of A212C:T250C CRALBP loaded with 9-cis-retinal
[3]
  average size distribution in diameter: 6.50±1.50 nm

## ox. A212C:T250C: 11-cis-retinal: oxidized A212C:T250C mutant in complex with 11-cis-retinal
[1]; FIG. 9
  k, reaction velocity of photoisomerization: 6.44e-06 s⁻¹

## oxidized A212C:T250C:9-cis-retinal: oxidized A212C:T250C mutant in complex with 9-cis-retinal
[1]; FIG. 9, oxidized with 5 mM oxidized glutathione
  photoisomerization detectable: No photoisomerization was detectable

## red. A212C:T250C: 11-cis-retinal: reduced A212C:T250C mutant in complex with 11-cis-retinal
[1]; FIG. 9
  k, reaction velocity of photoisomerization: 5.988e-05 s⁻¹

## wild-type: wild-type CRALBP in complex with cis-retinal, photoisomerization assay [reference compound]
[1]; FIG. 9
  k, reaction velocity of photoisomerization: 6.324e-05 s⁻¹
